The source of these data is US20090169552A1 (FRED HUTCHINSON CANCER RESEARCH CENTER, published 2009).

First the molecules themselves.
B1: MICA tetramer (recombinant MICA*001, residues 1-276, produced in transfected 293T cells, biotinylated and conjugated with PE-streptavidin) (ligand)
chain: EPHSLRYNLTVLSWDGSVQSGFLTEVHLDGQPFLRCDRQKCRAKPQGQWAEDVLGNKTWDRETRDLTGNGKDLRMTLAHIKDQKEGLHSLQEIRVCEIHEDNSTRSSQHFYYDGELFLSQNLETKEWTMPQSSRAQTLAMNVRNFLKEDAMKTKTHYHAMHADCLQELRRYLKSGVVLRRTVPPMVNVTRSEASEGNITVTCRASGFYPWNITLSWRQDGVSLSHDTQQWGDVLPDGNGTYQTWVATRICQGEEQRFTCYMEHSGNHSTHPVPSGK
modifications: glycosylated (secreted by 293T cells); BirA enzymatic biotinylation, conjugated with phycoerythrin (PE)-streptavidin
notes: Residues 1-276 probably count on the mature protein; also called MICA tetramers; PE-MICA tetramer
B2: NKG2D on NKL NK cells (receptor, human, UniProt P26718 1-216, looked up)
chain: MGWIRGRRSRHSWEMSEFHNYNLDLKKSDFSTRWQKQRCPVVKSKCRENASPFFFCCFIAVAMGIRFIIMVTIWSAVFLNSLFNQEVQIPLTESYCGPCPKNWICYKNNCYQFFDESKNWYESQASCMSQNASLLKVYSKEDQDLLKLVKSYHWMGLVHIPTNGSWQWEDGSILSPNLLTIIEMQKGDCALYASSFKGYIENCSTPNTYICMQRTV
notes: whole, on cells; On cells paired with DAP10 according to the description; also called KLRK1
B3: isolated MICA α3 domain (residues 187-274), expressed in bacteria (ligand)
chain: NVTRSEASEGNITVTCRASGFYPWNITLSWRQDGVSLSHDTQQWGDVLPDGNGTYQTWVATRICQGEEQRFTCYMEHSGNHSTHPVPS
notes: Numbering probably of the mature protein (Li et al., 1999); also called α3 membrane-proximal domain
B4: recombinant ERp5 (residues 1-421 of the mature protein), bacterially produced, N-terminal hexahistidine (protein)
chain: LYSSSDDVIELTPSNFNREVIQSDSLWLVEFYAPWCGHCQRLTPEWKKAATALKDVVKVGAVDADKHHSLGGQYGVQGFPTIKIFGSNKNRPEDYQGGRTGEAIVDAALSALRQLVKDRLGGRSGGYSSGKQGRSDSSSKKDVIELTDDSFDKNVLDSEDVWMVEFYAPWCGHCKNLEPEWAAAASEVKEQTKGKVKLAAVDATVNQVLASRYGIRGFPTIKIFQKGESPVDYDGGRTRSDIVSRALDLFSDNAPPPELLEIINEDIAKRTCEEHQLCVVAVLPHILDTGAAGRNSYLEVLLKLADKYKKKMWGWLWTEAGAQSELETALGIGGFGYPAMAAINARKMKFALLKGSFSEQGINEFLRELSFGRGSTAPVGGGAFPTIVEREPWDGRDGELPVEDDIDLSDVELDDLGKDEL

Data set [1] addresses T1, ERp5 (endoplasmic reticulum protein 5) on the cell surface (Homo sapiens (Human), UniProt Q15084 20-440).
T1 construct: Also stands for the native 50 kD ERp5 solubilised from U266 outer cell membranes in the MICA bead purification; also called surface ERp5; disulfide isomerase-related protein P5
T1 sequence: B4 chain
The data set can be described thus: flow cytometry of freshly isolated tumor cells.

The target in data set [2] is B1. The data set can be described thus: flow cytometry, tetramer staining of NKL cells. An excerpt:
Early studies of NKG2D interactions with its ligands utilized randomly oligomerized recombinant MICA (rMICA) or ULBP family ligands produced as immunoglobulin fusion proteins, all of which bound exclusively to NKG2D expressing lymphocytes (Bauer et al., 1999; Cosman et al., 2001). Testing MICA and ULBP2 tetramers, the inventors confirmed that these high avidity reagents stained the NKL NK cell line and that binding was entirely accounted for by NKG2D (FIG. 1A). However, in the course of screening ˜40 cell lines by flow cytometry, the inventors observed that MICA, but not ULBP2, tetramers stained cell types lacking NKG2D. The highest fluorescence intensities were recorded with U266 myeloma cells and all of 10 epithelial tumor lines tested and correlated with relatively large amounts of cell surface MICA. Only monocytic U937 cells were identified as negative for tetramer binding (FIG. 1A). The MICA tetramers were prepared using glycosylated protein secreted by transfected 293T cells. However, tetramer binding was not reduced after cleavage of cell surface polypeptide-linked carbohydrates but was inhibited in the presence of unglycosylated rMICA (FIG. 1A).

Data set [3] addresses T2, C39S mutant of ERp5 fragment 1-118 (Homo sapiens (Human), UniProt Q15084 20-137, C39S).
T2 construct: Position 39 counts on the mature protein; not shown: N-terminal hexahistidine tract
T2 sequence: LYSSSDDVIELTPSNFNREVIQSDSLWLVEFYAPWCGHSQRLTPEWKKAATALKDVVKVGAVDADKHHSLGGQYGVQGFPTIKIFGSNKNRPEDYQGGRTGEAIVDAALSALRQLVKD
The data set can be described thus: purified proteins mixed, non-reducing SDS-PAGE. An excerpt:
ERp5 activity assays. Ectodomain-only MICA, Siderocalin, and CD94-NKG2A were expressed in bacteria and purified as described (Li et al., 2001). […] All ERp5 sequences were fused to N-terminal hexahistidine tracts and included a C-terminal stop codon to prevent expression of the adjacent hexahistidine in pET22(b). Recombinant proteins were purified by metal affinity (BD Talon, Clontech) and size exclusion chromatography (Superdex 200, Pharmacia).

The target in data set [4] is T3, Siderocalin, expressed in bacteria, P80188.
T3 chain: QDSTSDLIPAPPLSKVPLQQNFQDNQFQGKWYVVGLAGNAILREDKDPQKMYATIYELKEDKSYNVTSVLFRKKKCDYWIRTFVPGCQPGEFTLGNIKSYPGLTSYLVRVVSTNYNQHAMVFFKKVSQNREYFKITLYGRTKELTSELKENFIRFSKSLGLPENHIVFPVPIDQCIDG

With B1, in data set [1], the binding result is reported as “binds”.
Consider B2, for which the binding result in data set [2] is on record as “binds”.
On to B3, for which, in data set [3], the binding result was “binds”.
Regarding B4, in data set [4], the “disulfide bond reduction, non-reducing gel electrophoresis” value was “ERp5 did not affect unrelated proteins with relatively accessible intrachain (Siderocalin) or intrachain and interchain (CD94-NKG2A) disulfide bonds”.
